{
  "source": "patent US20190025332A1",
  "key": {"[1]": {"molecular_target": "wild type human MIC-1 (human) (UniProt Q99988)", "sequence (Q99988 197-308 limits assumed)": "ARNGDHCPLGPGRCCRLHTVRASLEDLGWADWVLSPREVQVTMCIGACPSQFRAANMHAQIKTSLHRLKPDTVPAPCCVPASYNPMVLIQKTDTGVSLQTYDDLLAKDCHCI", "experiment": "SPR blocking; wtMIC-1 mixed with 1 nM mIgG1, over immobilised hGFRAL(ECR)-Fab; RU of wtMIC-1 binding"}, "[2]": {"molecular_target": "wild type human MIC-1 (human) (UniProt Q99988)", "experiment": "SPR blocking; wtMIC-1 mixed with 4 nM mIgG1, over immobilised hGFRAL(ECR)-Fab; RU of wtMIC-1 binding"}, "[3]": {"molecular_target": "wild type human MIC-1 (human) (UniProt Q99988)", "experiment": "SPR blocking; wtMIC-1 mixed with 0.125 nM mIgG1, over immobilised mGFRAL(ECR)-Fab; RU of wtMIC-1 binding"}, "[4]": {"molecular_target": "wild type human MIC-1 (human) (UniProt Q99988)", "experiment": "SPR blocking; wtMIC-1 mixed with 0.5 nM mIgG1, over immobilised hGFRAL(ECR)-Fab; RU of wtMIC-1 binding"}, "[5]": {"molecular_target": "wild type human MIC-1 (human) (UniProt Q99988)", "experiment": "SPR blocking; wtMIC-1 mixed with 0 nM mIgG1, over immobilised hGFRAL(ECR)-Fab; RU of wtMIC-1 binding"}, "[6]": {"molecular_target": "wild type human MIC-1 (human) (UniProt Q99988)", "experiment": "SPR blocking; wtMIC-1 mixed with 0.5 nM mIgG1, over immobilised mGFRAL(ECR)-Fab; RU of wtMIC-1 binding"}, "[7]": {"molecular_target": "wild type human MIC-1 (human) (UniProt Q99988)", "experiment": "SPR blocking; wtMIC-1 mixed with 0.125 nM mIgG1, over immobilised hGFRAL(ECR)-Fab; RU of wtMIC-1 binding"}, "[8]": {"molecular_target": "wild type human MIC-1 (human) (UniProt Q99988)", "experiment": "SPR blocking; wtMIC-1 mixed with 2 nM mIgG1, over immobilised mGFRAL(ECR)-Fab; RU of wtMIC-1 binding"}, "[9]": {"molecular_target": "wild type human MIC-1 (human) (UniProt Q99988)", "experiment": "SPR blocking; wtMIC-1 mixed with 2 nM mIgG1, over immobilised hGFRAL(ECR)-Fab; RU of wtMIC-1 binding"}, "[10]": {"molecular_target": "wild type human MIC-1 (human) (UniProt Q99988)", "experiment": "SPR blocking; wtMIC-1 mixed with 8 nM mIgG1, over immobilised hGFRAL(ECR)-Fab; RU of wtMIC-1 binding"}, "[11]": {"molecular_target": "wild type human MIC-1 (human) (UniProt Q99988)", "experiment": "SPR blocking; wtMIC-1 mixed with 0 nM mIgG1, over immobilised mGFRAL(ECR)-Fab; RU of wtMIC-1 binding"}, "[12]": {"molecular_target": "wild type human MIC-1 (human) (UniProt Q99988)", "experiment": "SPR blocking; wtMIC-1 mixed with 8 nM mIgG1, over immobilised mGFRAL(ECR)-Fab; RU of wtMIC-1 binding"}, "[13]": {"molecular_target": "wild type human MIC-1 (human) (UniProt Q99988)", "experiment": "SPR blocking; wtMIC-1 mixed with 4 nM mIgG1, over immobilised mGFRAL(ECR)-Fab; RU of wtMIC-1 binding"}, "[14]": {"molecular_target": "wild type human MIC-1 (human) (UniProt Q99988)", "experiment": "SPR blocking; wtMIC-1 mixed with 0.25 nM mIgG1, over immobilised mGFRAL(ECR)-Fab; RU of wtMIC-1 binding"}, "[15]": {"molecular_target": "wild type human MIC-1 (human) (UniProt Q99988)", "experiment": "SPR blocking; wtMIC-1 mixed with 1 nM mIgG1, over immobilised mGFRAL(ECR)-Fab; RU of wtMIC-1 binding"}, "[16]": {"molecular_target": "wild type human MIC-1 (human) (UniProt Q99988)", "experiment": "SPR blocking; wtMIC-1 mixed with 0.25 nM mIgG1, over immobilised hGFRAL(ECR)-Fab; RU of wtMIC-1 binding"}},
  "data": [
    {"substance": "isotype control (mIgG1) (antibody)", "values": [
      {"measurement": "Response (RU)", "setting": "[1]", "value": 59.3, "unit": "RU"},
      {"measurement": "Response (RU)", "setting": "[2]", "value": 59.1, "unit": "RU"},
      {"measurement": "Response (RU)", "setting": "[3]", "value": 55.3, "unit": "RU"},
      {"measurement": "Response (RU)", "setting": "[4]", "value": 58.4, "unit": "RU"},
      {"measurement": "Response (RU)", "setting": "[5]", "value": 58.3, "unit": "RU"},
      {"measurement": "Response (RU)", "setting": "[6]", "value": 55, "unit": "RU"},
      {"measurement": "Response (RU)", "setting": "[7]", "value": 58.4, "unit": "RU"},
      {"measurement": "Response (RU)", "setting": "[8]", "value": 54.5, "unit": "RU"},
      {"measurement": "Response (RU)", "setting": "[9]", "value": 60, "unit": "RU"},
      {"measurement": "Response (RU)", "setting": "[10]", "value": 59.4, "unit": "RU"},
      {"measurement": "Response (RU)", "setting": "[11]", "value": 55.6, "unit": "RU"},
      {"measurement": "Response (RU)", "setting": "[12]", "value": 55.5, "unit": "RU"},
      {"measurement": "Response (RU)", "setting": "[13]", "value": 55.4, "unit": "RU"},
      {"measurement": "Response (RU)", "setting": "[14]", "value": 54.6, "unit": "RU"},
      {"measurement": "Response (RU)", "setting": "[15]", "value": 54.1, "unit": "RU"},
      {"measurement": "Response (RU)", "setting": "[16]", "value": 59.4, "unit": "RU"}
    ]}
  ]
}
